Measured values published in doi:10.1101/2024.05.01.592117 (2024).

Columns and labels:
[1] = target: 43S preinitiation complex (40S + eIFs 1, 1A, 5, 3j, eIF2-TC and eIF3) (human, UniProt P23396 1-243; P41567 1-113; P47813 1-144; P55010 1-431; O75822 1-258; P55884 …); assay: FP
[2] = target: T1, 40S small ribosomal subunit (salt-washed, purified) (human, UniProt P23396 1-243); assay: FP
[3] = target: T1, 40S small ribosomal subunit …; assay: FP; 40S with eIF1 and eIF1A

Kd [1]: ~3000 nM
Kd [2]: ~5 nM
Kd [3]: 71 nM
B1: fluorescence-labeled Pdcd4-NTD (FL-Pdcd4-NTD, residues 1-156) (domain or fragment)
chain: MDVENEQILNVNPADPDNLSDSLFSGDEENAGTEEIKNEINGNWISASSINEARINAKAKRRLRKNSSRDSGRGDSVSDSGSDALRSGLTVPTSPKGRLLDRRSRSGKGRGLPKKGGAGGKGVWGTPGQVYDVEEVDVKDPNYDDDQENCVYETVV
modifications: fluorescein-5-maleimide on the single cysteine C150
